Patent publication US20230374140A1 (Memorial Sloan Kettering, published 2023)

What was measured:
[1] = target: T1, NDC80 Peptide A … / HLA-A*02:01 complex (human); experiment: flow cytometry, PE-conjugated antibody on pulsed T2 cells
T1 construct: whole, on cells; On peptide-pulsed T2 cells (HLA-A*02:01+); also called NDC80/HLA-A*02:01 complex; NDC80/MHC I

[2] = target: T1, NDC80 Peptide A … / HLA-A*02:01 complex; experiment: FACS, scFv phage on peptide-loaded T2 cells
[3] = target: T2, NC1 peptide … / HLA-A*02:01 complex (human); experiment: FACS, scFv phage on T2 cells loaded with single peptide
T2 construct: whole, on cells; On pulsed T2 cells; also pulled down from BV173 lysate (HLA-A*02) and presented on JMN cells

[4] = target: T3, NC2 peptide … / HLA-A*02:01 complex (human); experiment: as above
T3 construct: whole, on cells; On pulsed T2 cells; also presented on JMN cells (HLA-A*02)

[5] = target: T4, NC3 peptide … / HLA-A*02:01 complex (human); experiment: as above
T4 construct: whole, on cells; On pulsed T2 cells; also pulled down from BV173 lysate (HLA-A*02)

[6] = target: T5, NC4 peptide … / HLA-A*02:01 complex (human); experiment: as above
T5 construct: whole, on cells; On pulsed T2 cells

[7] = target: T6, NDC80 derived peptide … / HLA-A*02:01 complex (human); experiment: flow cytometry, antibody on pulsed T2 cells
T6 construct: whole, on cells; On pulsed T2 cells

[8] = target: T7, NDC80 derived peptide … / HLA-A*02:01 complex (human); experiment: flow cytometry, antibody on pulsed T2 cells; remark: listed apart in the source
T7 construct: whole, on cells; On pulsed T2 cells

[9] = target: T2, NC1 peptide … / HLA-A*02:01 complex; experiment: immunopurification from BV173 cell lysate and LC-MS/MS, relative quantitation
[10] = target: T4, NC3 peptide … / HLA-A*02:01 complex; experiment: as above
… / HLA-A*02:01 complex [11] = target: T8, … / HLA-A*02:01 complex (human); experiment: as above
T8 construct: whole, on cells; On pulsed T2 cells; also pulled down from BV173 lysate (HLA-A*02)

… / HLA-A*02:01 complex [12] = target: T9, … / HLA-A*02:01 complex (human); experiment: as above; remark: listed apart in the source
T9 construct: whole, on cells; On pulsed T2 cells; also pulled down from BV173 lysate (HLA-A*02)

HLA-A*02:01 on T2 cells = target: T10, HLA-A*02:01 on T2 cells (human); experiment: HLA-A*02 stabilization on pulsed T2 cells, BB7.2 staining, flow cytometry
T10 construct: whole, on cells; MHC class I molecule of TAP-deficient T2 cells, stabilized by exogenous peptide and detected with BB7.2; also called A*02 protein

B1: TCR mimic antibody clone 11 (mIgG1 format) (antibody, V domains shown)
VH: QVQLVQSGAEVRKPGASVKVSCKASGYSFTSNGITWVRQAPGQGLEWMGWISGYNANTRYAQEFQARVTMTTDTSASTAYMELRSLRSDDTAVYYCARHAYWGGDSDYWGQGTLVTVSS
VL: NFMLTQPHSVSESPGKTVTISCTRSSGSIASNYVQWYQQRPGSAPTTVIYEDNQRPSGVPDRFSGSIDSSSNSASLTISGLKTEDEADYYCQSYDSSNVVFGGGTKLTVLG
notes: conjugated to PE for flow cytometry
**Q.** Does B1 bind [1]?
**A.** binds

B2: Clone 7 scFv phage clone (Clone 07 scFv) (scFv)
scFv: QSVVTQPPSVSGAPGQRITISCTGSSSNIGAGYDVHWYQQLPGTAPKLLIFGNVNRPSGVPDRFSGSKSGTSASLAITGLQAEDEADYYCQSYDSSLSGWVFGGGTKLTVLGSRGGGGSGGGGSGGGGSLEMAQVQLQQSGAEVKKPGATVKVSCKASGYTFTSYGISWVRQAPGQGLEWMGWISAYNGNTNYAQKLQGRVTMTTDTSTSTAYMELRSLRSDDTAVYYCARMSMSEYIDYWGQGTLVTVSS
**Q.** Which results are given for B2?
**A.** binding result [2]: binds; binding result [3]: no binding; binding result [4]: no binding; binding result [5]: no binding; binding result [6]: no binding

B3: TCR mimic antibody clone 1 (mIgG1 clone 1 antibody) (antibody, V domains shown)
VH: EVQLVQSGAEVKKPGESLKISCEASGYSFSSNWIAWVRQRPGKGLEWMGIIYPGDSDTRYSPSFQGQVTMSADMSISTAYLQWSSLKASDTAMYYCARFAGPGMWSYGFDYWGQGTLVTVSS
VL: DIQLTQSPSSLSASVGDRVTITCRASQGIRNDLGWYQQKPGKAPKLMIYAASSLQSGVPSRFSGSGSGTDFTLTISSLQPEDFATYYCLQDYDYPLTFGGGTKLEIKR
notes: also called NDC80 clone 1 mAb; mouse version of NDC80 clone 1 mAb
**Q.** Does B3 bind [7]?
**A.** no binding

**Q.** Does B3 bind [8]?
**A.** no binding

**Q.** What about the “fold lower MS signal intensity than …” value [9] of the same binder?
**A.** 3 fold

**Q.** And the “fold lower MS signal intensity than …” value [10]?
**A.** ≥ 3 fold

**Q.** And the “fold lower MS signal intensity than …” value (… / HLA-A*02:01 complex [11])?
**A.** ≥ 3 fold

**Q.** What about the “fold lower MS signal intensity than …” value (… / HLA-A*02:01 complex [12]) of the same binder?
**A.** ≥ 3 fold

B4: NDC80 Peptide A ALNEQIARL (synthetic peptide) (peptide)
peptide: ALNEQIARL
notes: Free peptide pulsed on T2 cells at 50 µg/ml in the HLA-A*02 stabilization assay; also called unmodified peptide; wild-type peptide
**Q.** Does B4 bind (HLA-A*02:01 on T2 cells)?
**A.** binds
